Substitutions are numbered along the chain they refer to.
Experiments:
[1] = biological target: T1, recombinant human GPC5 (rhGPC5) (human, UniProt P78333 25-551, limits assumed); experiment: ELISA, antigen coated 100 ng/well, HRP anti-human Fc detection
T1 sequence (looked up): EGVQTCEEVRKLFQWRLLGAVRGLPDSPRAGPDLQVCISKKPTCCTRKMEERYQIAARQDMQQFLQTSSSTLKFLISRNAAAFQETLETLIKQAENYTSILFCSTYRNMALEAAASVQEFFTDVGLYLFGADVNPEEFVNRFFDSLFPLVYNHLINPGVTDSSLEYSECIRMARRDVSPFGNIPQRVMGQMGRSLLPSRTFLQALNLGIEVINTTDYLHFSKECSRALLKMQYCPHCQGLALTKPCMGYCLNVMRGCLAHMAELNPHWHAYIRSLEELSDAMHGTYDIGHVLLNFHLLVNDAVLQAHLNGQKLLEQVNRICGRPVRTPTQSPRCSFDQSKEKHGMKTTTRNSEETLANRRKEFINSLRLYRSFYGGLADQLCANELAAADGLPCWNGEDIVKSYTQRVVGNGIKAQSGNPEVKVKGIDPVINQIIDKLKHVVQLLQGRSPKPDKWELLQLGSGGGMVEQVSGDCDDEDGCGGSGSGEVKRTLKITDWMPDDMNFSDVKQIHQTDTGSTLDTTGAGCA
Description: (§1) In order to analyze the binding specificity of P7D4 series antibody to GPC3 protein, binding activity of P7D4 series single chain antibody to human GPC family members, including recombinant human GPC1 (rhGPC1), GPC2 (rhGPC2), GPC3 (rhGPC3), GPC5 (rhGPC5) and GPC6 (rhGPC6) (purchased from Andy Biosciences (Shanghai) Co., Ltd.) was detected by ELISA, respectively.
(§2) For this purpose, the above 5 antigens were diluted with 0.1 M NaHCO₃ (pH 9.6) coating solution and each well was coated with 100 ng at 50 μl/well overnight at 4° C. and blocked with 2% (w/v) BSA in PBST for 2 hours at room temperature. The plate was then rinsed for three times with PBST and PBST was removed. Subsequently, 100 ng of each antibody protein in PBST was added to each well plate, and the assay for each sample was performed in duplecate wells. After incubated for 2 hours at 37° C., the plates were rinsed for three times with PBST followed by addition of 100 μl/well HRP-labeled rabbit anti-human Fc antibody (purchased from Shanghai Rui Jin Biotechnology Co., Ltd.) diluted at 1:20000 and incubated at 37° C. for 1 hour. For detection, wells were rinsed for three times with PBST followed by three times with PBS and finally with TMB for development for 10 min. The chromogenic reaction was stopped with 50 μl of 2 M H₂SO₄ per well, and extinction value was measured at 450 nm with enzyme-linked immunodetector (Bio-Rad).

[2] = biological target: T2, recombinant human GPC2 (rhGPC2) (human, UniProt Q8N158 24-554, limits assumed); experiment: as above
T2 sequence (looked up): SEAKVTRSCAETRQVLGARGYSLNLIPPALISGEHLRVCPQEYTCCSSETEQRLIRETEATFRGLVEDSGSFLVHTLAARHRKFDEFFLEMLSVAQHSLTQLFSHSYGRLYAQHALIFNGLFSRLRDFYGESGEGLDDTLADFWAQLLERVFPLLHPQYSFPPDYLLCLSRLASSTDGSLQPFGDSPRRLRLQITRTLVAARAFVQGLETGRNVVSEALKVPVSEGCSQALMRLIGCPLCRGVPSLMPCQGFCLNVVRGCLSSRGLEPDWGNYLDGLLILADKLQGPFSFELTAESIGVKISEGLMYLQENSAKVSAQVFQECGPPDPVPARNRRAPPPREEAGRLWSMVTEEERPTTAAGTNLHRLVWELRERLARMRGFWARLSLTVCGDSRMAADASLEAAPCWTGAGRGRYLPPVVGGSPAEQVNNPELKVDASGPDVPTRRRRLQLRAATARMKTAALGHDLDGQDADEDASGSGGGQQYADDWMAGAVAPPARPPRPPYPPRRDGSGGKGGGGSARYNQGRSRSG
Description: as §1, §2

[3] = biological target: T3, recombinant human GPC1 (rhGPC1) (human, UniProt P35052 24-530, limits assumed); experiment: as above
T3 sequence (looked up): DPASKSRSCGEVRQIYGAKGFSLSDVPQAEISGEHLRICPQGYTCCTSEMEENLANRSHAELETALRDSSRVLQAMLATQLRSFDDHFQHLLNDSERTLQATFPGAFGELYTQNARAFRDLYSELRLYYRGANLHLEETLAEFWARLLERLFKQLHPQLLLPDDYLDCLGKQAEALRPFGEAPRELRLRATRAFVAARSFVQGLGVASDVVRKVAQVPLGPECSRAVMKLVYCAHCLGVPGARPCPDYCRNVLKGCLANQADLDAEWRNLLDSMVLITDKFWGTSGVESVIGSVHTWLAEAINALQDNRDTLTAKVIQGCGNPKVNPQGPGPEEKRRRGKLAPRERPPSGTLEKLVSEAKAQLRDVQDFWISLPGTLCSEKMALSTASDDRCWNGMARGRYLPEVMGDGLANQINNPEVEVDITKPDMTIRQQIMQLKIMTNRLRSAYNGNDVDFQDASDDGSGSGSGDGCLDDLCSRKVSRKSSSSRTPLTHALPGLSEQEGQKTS
Description: as §1, §2

[4] = biological target: T4, recombinant human GPC6 (rhGPC6) (human, UniProt Q9Y625 24-529, limits assumed); experiment: as above
T4 sequence (looked up): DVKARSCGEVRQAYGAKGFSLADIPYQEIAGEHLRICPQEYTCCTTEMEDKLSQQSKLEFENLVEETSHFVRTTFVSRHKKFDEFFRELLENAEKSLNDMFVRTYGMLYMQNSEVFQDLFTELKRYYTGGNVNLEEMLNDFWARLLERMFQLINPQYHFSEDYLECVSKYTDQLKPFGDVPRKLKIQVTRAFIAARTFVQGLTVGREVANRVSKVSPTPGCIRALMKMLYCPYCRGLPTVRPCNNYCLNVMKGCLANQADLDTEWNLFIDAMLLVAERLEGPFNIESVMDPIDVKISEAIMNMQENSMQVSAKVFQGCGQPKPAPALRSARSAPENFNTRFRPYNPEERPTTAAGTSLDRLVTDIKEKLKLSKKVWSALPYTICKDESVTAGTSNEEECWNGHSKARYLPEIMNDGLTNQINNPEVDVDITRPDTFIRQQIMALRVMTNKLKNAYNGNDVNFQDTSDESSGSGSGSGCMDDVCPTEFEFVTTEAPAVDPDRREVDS
Description: as §1, §2

[5] = biological target: T5, human GPC3 recombinant protein (purchased from Shanghai Rui Jin Biotechnology Co., Ltd.) (human, UniProt P51654 25-559, limits assumed); experiment: SPR Biacore T200, antibody captured by anti-human IgG (Fc), GPC3 as analyte, single-cycle kinetics, 25 °C
T5 construct: Bought recombinant protein; also called huGPC3; antigen GPC3
Description: To quantitatively analyze the binding of P7D4 series antibodies to GPC3, the affinity and kinetic parameters of P7D4 series single-chain antibodies were measured by capture method using Biacore T200 system (from GE). An anti-human IgG (Fc) antibody (purchased from GE) was coupled to carboxymethyl dextran surface of sensor chip CM5 through primary amino with NHS/EDC coupling according to the manufacturer's instructions. Measurements were performed in 1×HBS-EP+working buffer at 25° C., 30 μl/min, and regeneration condition was 3 M MgCl₂, 10 μl/min for 30 seconds. In each round of the testing cycle, the antibody to be tested is firstly captured onto the chip. GPC3 of a certain concentration flowed over the chip surface. The interaction between human GPC3 and the captured antibody caused the change of the molecular concentration on the surface of the sensor chip which was measured according to changes in SPR Signal and expressed in resonance units (RU). Time vs resonance unit (RU) was plotted. The resulting sensorgram documents the entire reaction including the binding and dissociation processes (FIG. 4). In all single-cycle kinetics, GPC3 concentrations were 5 nM, 10 nM, 20 nM, 40 nM and 80 nM, respectively. The resulting curves were evaluated using Biacore T200 evaluation software and the affinity KD values were calculated.

[6] = biological target: T5, human GPC3 recombinant protein …; experiment: SPR Biacore T200, human GPC3 amine-coupled to CM5 (305 RU), antibody as analyte, multi-cycle kinetics, 25 °C
Description: (§3) To quantitatively analyze the binding of antibody Y035 to antigen human GPC3, the affinity and kinetic parameters of antibody Y035 were measured by multi-cycle kinetic assay using Biacore T200 system (from GE). Antigen human GPC3 (purchased from Shanghai Rui-Jin Biotechnology Co., Ltd.) was coupled to carboxymethyl dextran surface of sensor chip CM5 through primary amino with NHS/EDC coupling according to the manufacturer's instructions, and the final amount of the conjugated ligand was 305RU. Kinetic measurements were performed in 1×HBS-EP+working buffer at 25° C., 30 μl/min, and regeneration condition was 10 mM Glycine-HCl (pH2.5), 10 μl/min for 25 seconds. In each round of the testing cycle, antibody Y035 of a certain concentration flowed over the chip surface. The interaction between the antibody and the antigen protein human GPC3 fixed on the chip caused the change of the molecular concentration on the surface of the sensor chip which was measured according to changes in SPR Signal and expressed in resonance units (RU). Time vs resonance unit (RU) was plotted and after RU value of the reference channel without fixed antigen was subtracted, the resulting sensorgram documents the entire reaction including the binding and dissociation processes. In different cycles of kinetic assay, the concentration of antibody Y035 was 6.25 nM, 12.5 nM, 25 nM, 50 nM and 100 nM, respectively. The resulting curves were evaluated using Biacore T200 evaluation software and the affinity KD values were calculated. Using the same method, the affinity and kinetic parameters of the parental murine monoclonal antibody 5A5 prior to humanization of Y035 were also assayed. The binding data of antibodies Y035 and 5A5 to human GPC3 proteins, respectively, are summarized in Table 2, and humanized antibody Y035 binds human GPC3 protein much better than mouse 5A5 after humanization.

[7] = biological target: T5, human GPC3 recombinant protein …; experiment: SPR Biacore T200, human GPC3 amine-coupled to CM5, antibody as analyte, multi-cycle kinetics, 25 °C
Description: as §3

B1: P7D4 mutant single chain antibody am42 (scFv, not shown: a dimerising Fc or GST)
scFv: QVQLQESGGGLVQPGRSLRLSCAASGFTFSSYAMHWVRQAPGKGLEWVSAISSSGGSTYYADSVKGRFTISRDNSKNTLYLQMNSLRAEDTAVYYCAKDRRGSHADAFDVWGQGTLVTVSSGGGGSGGGGSGGGGSQSALTQPPSASGSPGQSVTISCTGTSSDVGLMHNVSWYQQYPGKAPKLLIYKSSSRPSGVPDRFSGSKSGTSASLAITGLQAEDGADYYCQSYDSSLRVVFGGGTKVTVLG
B1: no binding (tested: 100 ng of each antibody protein per well) [1]; no binding (tested: 100 ng of each antibody protein per well) [2]; no binding (tested: 100 ng of each antibody protein per well) [3]. For the same binder, the binding result [4] was “no binding (tested: 100 ng of each antibody protein per well)”, the Kd [5] was 0.0821 nM and the koff [5] was 6.7e-05 s⁻¹. For the same binder, the kon [5] was 816000 M⁻¹ s⁻¹.

B2: humanized antibody Y035 (antibody, V domains shown)
VH: EVQLVQSGAEVKKPGASVKVSCKASGYTFSDYEMHWVRQAPGQGLEWMGAIHPGSGDTAYNQRFKGRVTITADKSTSTAYMELSSLRSEDTAVYYCARFYSYAYWGQGTLVTVSA
VL: DIVMTQTPLSLPVTPGEPASISCRSSQSLVHSNGNTYLQWYLQKPGQSPQLLIYKVSNRFSGVPDRFSGSGSGTDFTLKISRVEAEDVGVYYCSQSIYVPYTFGQGTKLEIKR
notes: Whole antibody expressed in 293F from vectors pIH-hu12H (heavy) and pIK-hu12L (light), purified on Protein A, detected with goat anti-human antibody
B2 showed a Kd [6] of 0.0634 nM, a koff [6] of 2.51e-05 s⁻¹ and a kon [6] of 396000 M⁻¹ s⁻¹.

B3: parental murine monoclonal antibody 5A5 (antibody, V domains shown)
VH: QVQLQQSGTELVRPGASVKLSCKALGYTFTDYEMHWVKQTPVHGLEWIGAIHPGSGDTAYNQRFKGKATLTADKSSSTAYMEYSSLTSEDSAVYYCTRFYSYAYWGQGTLVTVSA
VL: B2 VL with I2V, T14S, P15L, E17D, P18Q, Q50K, S70R, V88L, Y92F, Q105G
notes: Mouse hybridoma antibody purified from ascites on Protein G; also called mouse 5A5
B3 gave a Kd [7] of 0.0819 nM, a koff [7] of 2.3e-05 s⁻¹ and a kon [7] of 280000 M⁻¹ s⁻¹.

From patent US20240342305A1 (published 2024)
